Measurements: the supplement of paper PMC9732359
± gives the uncertainty stated by the source.

Test: protein stability index of a GFP-peptide fusion (yeast GPS) (PSI 1-4); higher = more stable; sorted into four equal gates, so the index is relative within each strain
How it was run: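 Sequencing reads from sorted gates were used to score each peptide. The library consisted of tiled 17-residue yeast protein peptides fused downstream of GFP on a Cherry-expressing plasmid, pooled and carried in yeast. Mid-log cultures in leucine-free medium were split into four equal gates by GFP/Cherry ratio, and each gate's plasmids were PCR-amplified and Illumina-sequenced. The protein stability index adds up, over all gates, the read frequency multiplied by the gate number.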

Sequence | protein stability index (doa10∆) | protein stability index (pdr5∆) | protein stability index (san1∆) | protein stability index (ubr1∆)
EAGEVKDDGAFVKFLSK [RPL10] | 3.28 ± 0.087 | 3.22 ± 0.078 | 3.35 ± 0.07 | 3.61 ± 0.065
EAGVTDVKVSISHDDLQ [FAS2] | 2.77 ± 0.049 | 2.72 ± 0.038 | 2.74 ± 0.061 | 2.85 ± 0.047
EALFQSRPDILSKIKFP [YCG1] | 2.75 ± 0.067 | 2.62 ± 0.057 | 2.82 ± 0.067 | 3.13 ± 0.058
EALSEKPTREPTPSVKT [RPC53] | 3.11 ± 0.099 | 3.07 ± 0.085 | 3.2 ± 0.063 | 3.25 ± 0.089
EANGATSFDRTKKTITP [RPL3] | 3.12 ± 0.15 | 2.91 ± 0.15 | 2.74 ± 0.12 | 3.17 ± 0.27
EAPFLTSGTSSEQFNVW [GAL11] | 2.56 ± 0.091 | 3.27 ± 0.072 | 3.02 ± 0.062 | 3.21 ± 0.13
EAQIKDWVENELEALKL [FAS2] | 1.96 ± 0.14 | 1.25 ± 0.091 | – | 2.01 ± 0.1
EATQDDDFDMLFGENDT [NUT1] | 2.92 ± 0.071 | 3.13 ± 0.06 | 3.06 ± 0.065 | 3.04 ± 0.062
ECATCHGNLASCHGHFG [RPO31] | 2.9 ± 0.072 | 3.17 ± 0.12 | 2.92 ± 0.067 | 3.04 ± 0.056
ECKGCDNKIDIYQIHIP [RPB2] | 3 ± 0.044 | 2.87 ± 0.048 | 3.02 ± 0.035 | 2.54 ± 0.032
ECPGHFGHIDLAKPVFH [RPO21] | 2.69 ± 0.064 | 2.88 ± 0.06 | 2.74 ± 0.048 | 2.92 ± 0.052
EDDDNEQHEEKAAEGEE [QCR6] | 3.06 ± 0.083 | 2.95 ± 0.12 | 2.95 ± 0.24 | 3.2 ± 0.072
EDDLVGVVQMVTDNKTP [TAF14] | 2.72 ± 0.15 | 2.52 ± 0.19 | 2.84 ± 0.091 | –
EDEAALAKLVSTIDANF [RPL8A] | 2.91 ± 0.065 | 3.02 ± 0.068 | 2.66 ± 0.062 | 2.85 ± 0.05
EDEENSDVLLFQLPTTC [RGR1] | 2.63 ± 0.044 | 2.27 ± 0.035 | 2.63 ± 0.041 | 2.35 ± 0.024
EDEGEERESSGAKDAEK [RPC17] | 2.93 ± 0.18 | 3.38 ± 0.28 | – | 3.65 ± 0.16
EDEGTLNVAEIITSGRD [ARP9] | 3.27 ± 0.22 | 3.21 ± 0.15 | 3.24 ± 0.079 | 3.29 ± 0.15
EDEVKVEGPKFTIDAKP [YLR335W/NUP2] | 3.54 ± 0.15 | 3.52 ± 0.2 | 3.45 ± 0.071 | –
EDFQVLRLGRGINPNTF [YDL088C/ASM4] | 3.29 ± 0.11 | 3.45 ± 0.19 | 3.06 ± 0.11 | 3.52 ± 0.064
EDFRIQFKTTIKDTAND [UBP6] | 2.49 ± 0.067 | 2.47 ± 0.07 | 2.16 ± 0.063 | 2.43 ± 0.054
EDHMLKKIENTMLENIT [RPO21] | 2.73 ± 0.1 | 2.78 ± 0.086 | 2.92 ± 0.077 | 2.85 ± 0.083
EDIIANYASVYPVVEVE [RRP43] | 2.47 ± 0.098 | 2.77 ± 0.092 | 2.85 ± 0.14 | 2.72 ± 0.079
EDIMVHYDNTTRNSLGN [RPO21] | 3.1 ± 0.09 | 3.1 ± 0.095 | 3.35 ± 0.041 | 3.06 ± 0.075
EDKRKVRSAEYYAKKRA [RPL16B] | 3.31 ± 0.1 | 3.38 ± 0.089 | 3.36 ± 0.071 | 3.46 ± 0.055
EDKVFASKGRTKIDMPI [BRN1] | – | – | 2.59 ± 0.26 | –
EDLVDRIENPEKYAAAA [RPP0] | 3.05 ± 0.078 | 3.28 ± 0.099 | 2.93 ± 0.054 | 3.09 ± 0.057
EDPDQEECSGRRWNKLC [YGL100W/SEH1] | 2.24 ± 0.07 | 2.16 ± 0.083 | 1.88 ± 0.1 | 2.27 ± 0.057

Sequence | protein stability index (doa10∆) | protein stability index (pdr5∆) | protein stability index (san1∆) | protein stability index (ubr1∆)
EDTELYQELIKNGALVS [YJL039C/NUP192] | – | 2.77 ± 0.087 | 3.21 ± 0.11 | 2.57 ± 0.069
EDTNLAAIHAKRVTIQK [HHT1] | 2.88 ± 0.078 | 3.04 ± 0.099 | 2.97 ± 0.059 | 2.92 ± 0.056
EDVTPVPSDSTRKKGGR [RPS14A] | 3.1 ± 0.13 | 3.24 ± 0.079 | 3.41 ± 0.065 | 3.45 ± 0.075
EEALNFDISMADLSSSE [SSN2] | 2.85 ± 0.06 | 2.95 ± 0.053 | 3.05 ± 0.07 | 2.6 ± 0.049
EECSGRRWNKLCTLNDS [YGL100W/SEH1] | 2.99 ± 0.051 | 3.17 ± 0.053 | 2.82 ± 0.05 | 2.78 ± 0.041
EEEDAKNPLFSYVEPVL [RPL31A] | 2.88 ± 0.042 | 2.63 ± 0.036 | 2.12 ± 0.047 | 2.21 ± 0.026
EEELFQEMIEISNVIKP [SRP54] | 3.04 ± 0.077 | 3.28 ± 0.066 | 3.34 ± 0.064 | 3.37 ± 0.13
EEEVDIDMDKLNTVLIA [RRP43] | 3.35 ± 0.091 | 3.32 ± 0.095 | 3.02 ± 0.077 | 2.89 ± 0.068
EEFRNLAALNVWYGLSD [SSN2] | 3.37 ± 0.14 | 2.8 ± 0.13 | 2.39 ± 0.12 | 2.94 ± 0.074
EEGRAIPGEYVTYALSG [RPS21A] | – | – | 2.81 ± 0.19 | 2.96 ± 0.16
EEGYSGVEVRVTPTKTE [RPS3] | 2.18 ± 0.16 | 3.15 ± 0.11 | 2.88 ± 0.091 | 3.11 ± 0.08
EELDITPLFPIDRNSTI [IRR1] | 2.48 ± 0.11 | 2.9 ± 0.14 | 2.9 ± 0.095 | 2.8 ± 0.1
EENDLQQKLNTRMQRGH [REC8] | 3.17 ± 0.12 | 3.14 ± 0.078 | 3.2 ± 0.22 | 3.4 ± 0.048
EENPIMQTALRRLPEDE [QCR7] | 3.45 ± 0.28 | 3.52 ± 0.28 | – | 3.39 ± 0.18
EERKRWAMQGISYLQEV [PCI8] | 3.58 ± 0.19 | 3.15 ± 0.13 | 3.12 ± 0.15 | 3.23 ± 0.11
EESSTGKSTADVKSSDS [YJL041W/NSP1] | – | 3.35 ± 0.19 | – | –
EEWLNTKDPDEQQLFEI [CSN9] | 3.06 ± 0.11 | 3.16 ± 0.12 | 3.24 ± 0.051 | 3.15 ± 0.075
EEYLDANVFRLENQKDL [MTW1] | 3.4 ± 0.081 | 3.38 ± 0.087 | 3.28 ± 0.057 | 3.3 ± 0.044
EFFNTLRKSRETVKLPR [RRI2] | – | 3.55 ± 0.18 | 3.02 ± 0.15 | –
EFIPPDPTKVTEFEFYL [SSN8] | 3.04 ± 0.055 | 2.85 ± 0.039 | 2.88 ± 0.051 | 2.68 ± 0.031
EFIRCGCLIKNLPRTKA [RMP1] | 2.17 ± 0.087 | 2.82 ± 0.1 | 2.3 ± 0.11 | 2.53 ± 0.077
EFLYPHLNFPNVKFLRI [SNF12] | 2.21 ± 0.19 | 2.67 ± 0.27 | – | 3.15 ± 0.1
EFVNGGKVVKNVLLLDS [RRP46] | 2.42 ± 0.17 | 2.02 ± 0.069 | 1.34 ± 0.2 | 1.9 ± 0.11
EGDQAEVIFSFEGTPPF [YMR129W/POM152] | 3.29 ± 0.17 | 3.39 ± 0.17 | 2.52 ± 0.21 | 3.36 ± 0.1
EGNVPQTLAPVPYETFI [RPL21A] | 3.06 ± 0.066 | 2.74 ± 0.056 | 3.08 ± 0.052 | 2.78 ± 0.056
EHDLLRQIRPIMERIKS [ITC1] | 1.37 ± 0.28 | 2.3 ± 0.27 | – | –
EHGLHAPAYAWSHNGPF [CYT1] | 2.83 ± 0.11 | 3 ± 0.073 | 2.52 ± 0.087 | 2.87 ± 0.054
